Substrate in this data set: OC[C@H]1OC(O)[C@H](O)[C@@H](O)[C@@H]1O
The data set can be described thus: purified protein. The format is biochemical, Aspergillus niger. The following applies: apparent Km of the whole free GOx/HRP cascade, not of isolated GOx, authors call the kinetics governed by HRP, glucose 50-150 µM, dissolved O2, constant TMB, 0.1 M acetate pH 4.5, room temperature.

The values below come from article PMC12300839, “Noncovalently Immobilized Glucose Oxidase/Horseradish Peroxidase Cascade on Polyamide Supports for Eco-Friendly Polyaniline Synthesis” (Molecules, 2025).

B1: glucose oxidase (GOx) (Aspergillus niger) (protein)
chain: LPHYIRSNGIEASLLTDPKDVSGRTVDYIIAGGGLTGLTTAARLTENPNISVLVIESGSYESDRGPIIEDLNAYGDIFGSSVDHAYETVELATNNQTALIRSGNGLGGSTLVNGGTWTRPHKAQVDSWETVFGNEGWNWDNVAAYSLQAERARAPNAKQIAAGHYFNASCHGVNGTVHAGPRDTGDDYSPIVKALMSAVEDRGVPTKKDFGCGDPHGVSMFPNTLHEDQVRSDAAREWLLPNYQRPNLQVLTGQYVGKVLLSQNGTTPRAVGVEFGTHKGNTHNVYAKHEVLLAAGSAVSPTILEYSGIGMKSILEPLGIDTVVDLPVGLNLQDQTTATVRSRITSAGAGQGQAAWFATFNETFGDYSEKAHELLNTKLEQWAEEAVARGGFHNTTALLIQYENYRDWIVNHNVAYSELFLDTAGVASFDVWDLLPFTRGYVHILDKDPYLHHFAYDPQYFLNELDLLGQAAATQLARNISNSGAMQTYFAGETIPGDNLAYDADLSAWTEYIPYHFRPNYHGVGTCSMMPKEMGGVVDNAARVYGVQGLRVIDGSIPPTQMSSHVMTVFYAMALKISDAILEDYASMQ
notes: commercial native enzyme, type VIII (Merck/Sigma Aldrich), free in solution, ~160 kDa, FAD-containing
As to B1, the Km (commonly the substrate concentration at which the rate is half of its maximum) is listed as 275 µM and the Vmax (as a rule, the top rate of the reaction or transport when substrate is in excess) was found to be 696 µM/min/mg.
